# Legend:
# [1] = target: human CD4 on cells (SKW3 cells; human PBMCs) (human) (UniProt P01730); experiment: SKW3 FACS binning, OKT4a on SKW3 cells, anti-hu A647 secondary, without competing supernatant (background 5000)
# [2] = target: human CD4 on cells (SKW3 cells; human PBMCs) (human) (UniProt P01730); experiment: SKW3 FACS binning, RPA-T4-PE-Dazzle 594 on SKW3 cells without competing supernatant (background 783)
# [3] = target: human CD4 on cells (SKW3 cells; human PBMCs) (human) (UniProt P01730); experiment: SKW3 FACS binning, OKT4-A488 on SKW3 cells without competing supernatant (background 2163)
substance,measurement,setting,value
Human anti-human CD4 (OKT4a) (antibody),Max Binding,[1],35000
"Mouse anti-human CD4 (RPA-T4), PE-Dazzle 594 conjugated (antibody)",Max Binding,[2],15000
"Mouse anti-human CD4 (OKT4), Alexa Fluor 488 conjugated (antibody)",Max Binding,[3],8200

# Source: patent publication US20220112288A1
